We go through two molecules from US20240270840A1 (NECTIN THERAPEUTICS, published 2024).

The Kd is the concentration at which binding is half-saturated. Broadly, the koff is the first-order rate constant of dissociation. A word on the kon: it is a measure of how fast the partners come together. Usually EC50 stands for the midpoint of the concentration-response curve.

The target of assay [1] is T1, Human CD112R (PVRIG) (human, UniProt Q6DKI7 41-171, limits assumed).
T1 sequence (looked up): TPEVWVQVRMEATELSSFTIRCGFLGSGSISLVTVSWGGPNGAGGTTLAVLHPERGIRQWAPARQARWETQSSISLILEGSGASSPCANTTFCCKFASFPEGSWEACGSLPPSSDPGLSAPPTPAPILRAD
Briefly: SPR (Biacore); purified full antibody. A general note: In SPR one partner is held on a chip, and binding of the other changes the refractive index at the surface.

In assay [2] the target is T2, Human CD112R expressed on cells (human, UniProt Q6DKI7 1-326).
T2 construct: whole, on cells; also called HuCD112R; hCD112R
T2 sequence (looked up): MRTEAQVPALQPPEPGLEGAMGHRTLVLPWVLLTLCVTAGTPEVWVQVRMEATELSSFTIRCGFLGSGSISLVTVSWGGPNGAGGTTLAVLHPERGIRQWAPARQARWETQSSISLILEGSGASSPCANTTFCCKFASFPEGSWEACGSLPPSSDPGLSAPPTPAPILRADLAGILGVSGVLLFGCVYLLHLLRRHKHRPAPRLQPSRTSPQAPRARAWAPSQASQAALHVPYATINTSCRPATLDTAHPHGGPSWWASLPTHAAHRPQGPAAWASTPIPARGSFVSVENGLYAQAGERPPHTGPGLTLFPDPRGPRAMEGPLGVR
Nature of the assay: FACS, chimeric mAb 99-0.4 nM in three-fold dilutions on HEK 293T cells overexpressing CD112R, anti-human-APC 1:200. The protocol:
For detection, anti-human-APC antibody (Ab) was used at 1:200 dilution, and cell binding was analyzed by FACS. FIG. 3C—8866 cells ([…]) overexpressing human Nectin-2 were incubated with 10 μg/ml of CD112R-Fc in the presence of isotype control Ab, or with the indicated clones at 4 μg/ml. Bound CD112R-Fc was detected by anti-mouse-Dy-647 1:250 dilution and analyzed by FACS. The blocking of CD112R binding exceeded 95% by all the variants.
Binding was analyzed by FACS and used for calculation of EC-50 values. […] The N31S variant, engineered to remove an N-Linked glycosylation motif at the CDR1 of the heavy chain, had improved (sub-nM) binding to human CD112R in this cell-based assay.

In assay [3] the target is Cynomolgus monkey (Macaca fascicularis) CD112R expressed on cells (cynomolgus monkey (Macaca fascicularis)). Briefly: flow cytometry on 293T cells; EC50 on cynomolgus CD112R against EC50 on human CD112R.
Assay [4] concerns the target T1, Human CD112R (PVRIG). Briefly: SPR (Biacore); human CD112R as ligand, antibody as analyte.
Assay [5] has as its target T1, Human CD112R (PVRIG). Briefly: SPR (Biacore); human CD112R as ligand, antibody as analyte; * limit of Biacore instrument.
Assay [6] deals with Cynomolgus monkey (Macaca fascicularis) CD112R expressed on cells (cynomolgus monkey (Macaca fascicularis)). Nature of the assay: flow cytometry on 293T cells expressing cynomolgus CD112R; 99-0.05 nM, three-fold dilutions.
Assay [7] concerns the target T1, Human CD112R (PVRIG). Briefly: SPR (Biacore), against the reference Ab.
In assay [8] the target is T1, Human CD112R (PVRIG). Briefly: affinity of glycosylation-motif variants (Table 2; method not named there).
For assay [9], the target named is T2, Human CD112R expressed on cells. Briefly: flow cytometry on 293T cells expressing human CD112R; 99-0.05 nM, three-fold dilutions. The protocol:
The humanized mAbs were tested for binding of endogenous and overexpressed human and cynomolgus CD112R.

B1: chimeric clone-13(N31S)-hIgG1 (VH0K0) (antibody, V domains shown)
VH: QVQLQQPGAELVKPGTSVKLSCKASGYNFTSYWINWVKLRPGQGLEWIGDIYPGSYIPNYNEKFKNKATLTVDTSSSTAYMQLTSLASEDSALYYCAGGYFDVWGAGTTVTVSS
VL: DIVMTQSPSSLSVSAGEKVTMSCKSSQSLLSSGNQKNYLAWYQQKPGQPPKLLIYGASTRESGVPDRFTGSGSGTDFTLTISSVQAEDLAVYYCQNDHSYPYTFGGGTKLEIK
notes: Chimeric, human IgG1; Light chain with N31S (deamidation removal), also denoted N27dS by Kabat numbering; also called clone N31S; VH0Vk0
In the case of B1, the equilibrium dissociation constant (Kd) turned out to be 0.145 nM in [1], 0.00096 nM in [5] and 0.167 nM in [8]. Besides, the “Relative Kd (against VH0K0 N28T)” value in assay [1] stood at 1.16. Also, the koff worked out at 3.05e-05 s⁻¹ in [1] and 3.26e-07 s⁻¹ in assay [4]. The figures for the kon in assay [1] and in [4] were 210000 M⁻¹ s⁻¹ and 340000 M⁻¹ s⁻¹, respectively. Further, the figures for the EC50 in [2], in [6] and in assay [9] were 0.7 nM, 0.97 nM and 0.55 nM, respectively. Further, the Ratio Cyno/Hu (EC50) in assay [3] is 1.75. In addition, the “fold more potent in binding CD112R than the reference Ab” value in [7] was 3 to 30 fold. Also, in assay [8], the “Relative Kd (against VH0Vk0)” value turned out to be 1.

B2: Clone-13-hIgG1 (antibody, V domains shown)
VH: QVQLQQPGAELVKPGTSVKLSCKASGYNFTSYWINWVKLRPGQGLEWIGDIYPGSYIPNYNEKFKNKATLTVDTSSSTAYMQLTSLASEDSALYYCAGGYFDVWGAGTTVTVSS
VL: DIVMTQSPSSLSVSAGEKVTMSCKSSQSLLNSGNQKNYLAWYQQKPGQPPKLLIYGASTRESGVPDRFTGSGSGTDFTLTISSVQAEDLAVYYCQNDHSYPYTFGGGTKLEIK
notes: Chimeric antibody with human IgG1 constant region; also called chimeric clone (clone 13)
B2: the EC50 in [2] was 1.24 nM. In assay [4], this molecule registered a dissociation rate constant (koff) of 2.96e-06 s⁻¹ and a kon of 340000 M⁻¹ s⁻¹. In assay [5], the Kd worked out at 0.00871 nM. In addition, the “fold more potent in binding CD112R than the reference Ab” value in assay [7] was 3 to 30 fold.
